Laboratory results published in patent US20250352667A1.
Blank lines part the entries; values can stand above or below the binder they belong to.

Tests used:
[1] = molecular target: KEAP1 (wild-type full-length), His-tagged (human) (UniProt Q14145); assay: AlphaScreen; 2.4 nM FLAG-NRF2, 150 nM His-KEAP1; Rep 1; control for I86V
[2] = molecular target: KEAP1 (wild-type full-length), His-tagged (human) (UniProt Q14145); assay: AlphaScreen; 4.8 nM FLAG-NRF2, 150 nM His-KEAP1; Rep 1; control for I86V
[3] = molecular target: KEAP1 (wild-type full-length), His-tagged (human) (UniProt Q14145); assay: AlphaScreen; 4.8 nM FLAG-NRF2, 150 nM His-KEAP1; Rep 3; control for I86V
[4] = molecular target: KEAP1 (wild-type full-length), His-tagged (human) (UniProt Q14145); assay: AlphaScreen; 9.6 nM FLAG-NRF2, 150 nM His-KEAP1; Rep 1; control for I86V
[5] = molecular target: KEAP1 (wild-type full-length), His-tagged (human) (UniProt Q14145); assay: AlphaScreen; 9.6 nM FLAG-NRF2, 150 nM His-KEAP1; Rep 2; control for I86V
[6] = molecular target: KEAP1 (wild-type full-length), His-tagged (human) (UniProt Q14145); assay: AlphaScreen; 614.4 nM FLAG-NRF2, 150 nM His-KEAP1; Rep 2; control for I28V
[7] = molecular target: KEAP1 (wild-type full-length), His-tagged (human) (UniProt Q14145); assay: AlphaScreen; 153.6 nM FLAG-NRF2, 150 nM His-KEAP1; Rep 2; control for I86V
[8] = molecular target: KEAP1 (wild-type full-length), His-tagged (human) (UniProt Q14145); assay: AlphaScreen; 307.2 nM FLAG-NRF2, 150 nM His-KEAP1; Rep 1; control for I86V
[9] = molecular target: KEAP1 (wild-type full-length), His-tagged (human) (UniProt Q14145); assay: AlphaScreen; 307.2 nM FLAG-NRF2, 150 nM His-KEAP1; Rep 2; control for I86V
[10] = molecular target: KEAP1 (wild-type full-length), His-tagged (human) (UniProt Q14145); assay: AlphaScreen; 1228.8 nM FLAG-NRF2, 150 nM His-KEAP1; Rep 2; control for I86V
[11] = molecular target: KEAP1 (wild-type full-length), His-tagged (human) (UniProt Q14145); assay: AlphaScreen; FLAG-NRF2 wt isoform 1 2.4 nM, His-KEAP1 150 nM; Rep 2; positive control for Q75R
[12] = molecular target: KEAP1 (wild-type full-length), His-tagged (human) (UniProt Q14145); assay: AlphaScreen; FLAG-NRF2 wt isoform 1 19.2 nM, His-KEAP1 150 nM; Rep 3; positive control for I86V
[13] = molecular target: KEAP1 (wild-type full-length), His-tagged (human) (UniProt Q14145); assay: AlphaScreen; FLAG-NRF2 wt isoform 1 38.4 nM, His-KEAP1 150 nM; Rep 2; positive control for Q75R
[14] = molecular target: KEAP1 (wild-type full-length), His-tagged (human) (UniProt Q14145); assay: AlphaScreen; FLAG-NRF2 wt isoform 1 76.8 nM, His-KEAP1 150 nM; Rep 1; positive control for Q75R
[15] = molecular target: KEAP1 (wild-type full-length), His-tagged (human) (UniProt Q14145); assay: AlphaScreen; FLAG-NRF2 wt isoform 1 76.8 nM, His-KEAP1 150 nM; Rep 2; positive control for Q75R
[16] = molecular target: KEAP1 (wild-type full-length), His-tagged (human) (UniProt Q14145); assay: AlphaScreen; NRF2 wt isoform 1 153.6 nM, KEAP1 150 nM; signal against NRF2-only control; control for Q75R
[17] = molecular target: KEAP1 (wild-type full-length), His-tagged (human) (UniProt Q14145); assay: AlphaScreen; FLAG-NRF2 Q75R 9.6 nM, His-KEAP1 150 nM; Rep 2
[18] = molecular target: KEAP1 (wild-type full-length), His-tagged (human) (UniProt Q14145); assay: AlphaScreen; FLAG-NRF2 Q75R 19.2 nM, His-KEAP1 150 nM; Rep 2
[19] = molecular target: KEAP1 (wild-type full-length), His-tagged (human) (UniProt Q14145); assay: AlphaScreen; FLAG-NRF2 Q75R 307.2 nM, His-KEAP1 150 nM; Rep 2
[20] = molecular target: KEAP1 (wild-type full-length), His-tagged (human) (UniProt Q14145); assay: AlphaScreen; NRF2 Q75R 153.6 nM, KEAP1 150 nM; signal against NRF2-only control
[21] = molecular target: KEAP1 (wild-type full-length), His-tagged (human) (UniProt Q14145); assay: AlphaScreen; FLAG-NRF2 I86V 4.8 nM, His-KEAP1 150 nM; Rep 3
[22] = molecular target: KEAP1 (wild-type full-length), His-tagged (human) (UniProt Q14145); assay: AlphaScreen; FLAG-NRF2 I86V 1228.8 nM, His-KEAP1 150 nM; Rep 2
[23] = molecular target: KEAP1 (wild-type full-length), His-tagged (human) (UniProt Q14145); assay: AlphaScreen; NRF2 I86V 9.6 nM, KEAP1 150 nM; relative to wild-type NRF2 isoform 1 (100 %)
[24] = molecular target: KEAP1 (wild-type full-length), His-tagged (human) (UniProt Q14145); assay: AlphaScreen; 4.8 nM FLAG-NRF2, 150 nM His-KEAP1; Rep 2
[25] = molecular target: KEAP1 (wild-type full-length), His-tagged (human) (UniProt Q14145); assay: AlphaScreen; 1228.8 nM FLAG-NRF2, 150 nM His-KEAP1; Rep 1
[26] = molecular target: KEAP1 (wild-type full-length), His-tagged (human) (UniProt Q14145); assay: AlphaScreen; 1228.8 nM FLAG-NRF2, 150 nM His-KEAP1; signal against NRF2 only
[27] = molecular target: KEAP1 (wild-type full-length), His-tagged (human) (UniProt Q14145); assay: AlphaScreen; standard deviation of three conditions; against wild-type NRF2 isoform 1

KEAP1 (wild-type full-length), His-tagged (human), sequence (Q14145 2-624 limits assumed): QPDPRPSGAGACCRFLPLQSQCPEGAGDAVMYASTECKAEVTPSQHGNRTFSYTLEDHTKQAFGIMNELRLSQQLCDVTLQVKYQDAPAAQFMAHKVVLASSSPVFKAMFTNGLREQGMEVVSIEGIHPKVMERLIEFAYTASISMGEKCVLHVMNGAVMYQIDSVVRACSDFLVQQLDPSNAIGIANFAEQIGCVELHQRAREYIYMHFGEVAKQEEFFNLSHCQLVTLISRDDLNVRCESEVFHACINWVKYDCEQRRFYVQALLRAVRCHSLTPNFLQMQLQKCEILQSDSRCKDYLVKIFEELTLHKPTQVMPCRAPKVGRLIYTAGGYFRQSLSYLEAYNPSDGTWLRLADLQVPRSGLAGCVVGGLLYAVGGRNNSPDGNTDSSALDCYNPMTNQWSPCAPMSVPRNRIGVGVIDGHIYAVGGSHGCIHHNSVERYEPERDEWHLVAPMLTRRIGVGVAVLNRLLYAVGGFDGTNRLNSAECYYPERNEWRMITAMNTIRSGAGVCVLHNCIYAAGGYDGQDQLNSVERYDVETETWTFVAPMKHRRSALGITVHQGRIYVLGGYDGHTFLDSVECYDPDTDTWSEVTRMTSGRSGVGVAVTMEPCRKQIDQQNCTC

B3: NRF2 isoform 1 (I86V full-length), FLAG-tagged (protein)
chain: MMDLELPPPGLPSQQDMDLIDILWRQDIDLGVSREVFDFSQRRKEYELEKQKKLEKERQEQLQKEQEKAFFAQLQLDEETGEFLPVQPAQHIQSETSGSANYSQVAHIPKSDALYFDDCMQLLAQTFPFVDDNEVSSATFQSLVPDIPGHIESPVFIATNQAQSPETSVAQVAPVDLDGMQQDIEQVWEELLSIPELQCLNIENDKLVETTMVPSPEAKLTEVDNYHFYSSIPSMEKEVGNCSPHFLNAFEDSFSSILSTEDPNQLTVNSLNSDATVNTDFGDEFYSAFIAEPSISNSMPSPATLSHSLSELLNGPIDVSDLSLCKAFNQNHPESTAEFNDSDSGISLNTSPSVASPEHSVESSSYGDTLLGLSDSEVEELDSAPGSVKQNGPKTPVHSSGDMVQPLSPSQGQSTHVHDAQCENTPEKELPVSPGHRKTPFTKDKHSSRLEAHLTRDELRAKALHIPFPVEKIINLPVVDFNEMMSKEQFNEAQLALIRDIRRRGKNKVAAQNCRKRKLENIVELEQDLDHLKDEKEKLLKEKGENDKSLHLLKKQLSTLYLEVFSMLRDEDGKPYSPSEYSLQQTRDGNVFLVPKSKKPDVKKN
A-counts (NRF2 plus KEAP1) [21]: 2180 A-counts | A-counts (NRF2 plus KEAP1) [22]: 1580 A-counts | Binding Percentage [23]: 99.1%

B4: NRF2 isoform 1 (I28V full-length), FLAG-tagged (protein)
chain: MMDLELPPPGLPSQQDMDLIDILWRQDVDLGVSREVFDFSQRRKEYELEKQKKLEKERQEQLQKEQEKAFFAQLQLDEETGEFLPIQPAQHIQSETSGSANYSQVAHIPKSDALYFDDCMQLLAQTFPFVDDNEVSSATFQSLVPDIPGHIESPVFIATNQAQSPETSVAQVAPVDLDGMQQDIEQVWEELLSIPELQCLNIENDKLVETTMVPSPEAKLTEVDNYHFYSSIPSMEKEVGNCSPHFLNAFEDSFSSILSTEDPNQLTVNSLNSDATVNTDFGDEFYSAFIAEPSISNSMPSPATLSHSLSELLNGPIDVSDLSLCKAFNQNHPESTAEFNDSDSGISLNTSPSVASPEHSVESSSYGDTLLGLSDSEVEELDSAPGSVKQNGPKTPVHSSGDMVQPLSPSQGQSTHVHDAQCENTPEKELPVSPGHRKTPFTKDKHSSRLEAHLTRDELRAKALHIPFPVEKIINLPVVDFNEMMSKEQFNEAQLALIRDIRRRGKNKVAAQNCRKRKLENIVELEQDLDHLKDEKEKLLKEKGENDKSLHLLKKQLSTLYLEVFSMLRDEDGKPYSPSEYSLQQTRDGNVFLVPKSKKPDVKKN
A-counts [24]: 1050 A-counts | A-counts [25]: 995 A-counts | S/N [26]: 0.9 | Reported Value (standard deviation of reduction in binding) [27]: 7.2%

Second part, the binder after the results:

A-counts [1]: 860 A-counts | A-counts [2]: 1810 A-counts | A-counts [3]: 1860 A-counts | A-counts [4]: 2640 A-counts | A-counts [5]: 2720 A-counts | A-counts [6]: 1810 A-counts | A-counts [7]: 3090 A-counts | A-counts [8]: 2640 A-counts | A-counts [9]: 2790 A-counts | A-counts [10]: 2770 A-counts | A-counts (NRF2 plus KEAP1) [11]: 429 A-counts | A-counts (NRF2 plus KEAP1) [12]: 3040 A-counts | A-counts (NRF2 plus KEAP1) [13]: 1450 A-counts | A-counts (NRF2 plus KEAP1) [14]: 1490 A-counts | A-counts (NRF2 plus KEAP1) [15]: 1420 A-counts | S/N [16]: 2.1
B1: NRF2 isoform 1 (wild-type full-length), FLAG-tagged (protein)
chain: MMDLELPPPGLPSQQDMDLIDILWRQDIDLGVSREVFDFSQRRKEYELEKQKKLEKERQEQLQKEQEKAFFAQLQLDEETGEFLPIQPAQHIQSETSGSANYSQVAHIPKSDALYFDDCMQLLAQTFPFVDDNEVSSATFQSLVPDIPGHIESPVFIATNQAQSPETSVAQVAPVDLDGMQQDIEQVWEELLSIPELQCLNIENDKLVETTMVPSPEAKLTEVDNYHFYSSIPSMEKEVGNCSPHFLNAFEDSFSSILSTEDPNQLTVNSLNSDATVNTDFGDEFYSAFIAEPSISNSMPSPATLSHSLSELLNGPIDVSDLSLCKAFNQNHPESTAEFNDSDSGISLNTSPSVASPEHSVESSSYGDTLLGLSDSEVEELDSAPGSVKQNGPKTPVHSSGDMVQPLSPSQGQSTHVHDAQCENTPEKELPVSPGHRKTPFTKDKHSSRLEAHLTRDELRAKALHIPFPVEKIINLPVVDFNEMMSKEQFNEAQLALIRDIRRRGKNKVAAQNCRKRKLENIVELEQDLDHLKDEKEKLLKEKGENDKSLHLLKKQLSTLYLEVFSMLRDEDGKPYSPSEYSLQQTRDGNVFLVPKSKKPDVKKN

A-counts (NRF2 plus KEAP1) [17]: 1090 A-counts | A-counts (NRF2 plus KEAP1) [18]: 1280 A-counts | A-counts (NRF2 plus KEAP1) [19]: 1020 A-counts | S/N [20]: 1.5
B2: NRF2 isoform 1 (Q75R full-length), FLAG-tagged (protein)
chain: MMDLELPPPGLPSQQDMDLIDILWRQDIDLGVSREVFDFSQRRKEYELEKQKKLEKERQEQLQKEQEKAFFAQLRLDEETGEFLPIQPAQHIQSETSGSANYSQVAHIPKSDALYFDDCMQLLAQTFPFVDDNEVSSATFQSLVPDIPGHIESPVFIATNQAQSPETSVAQVAPVDLDGMQQDIEQVWEELLSIPELQCLNIENDKLVETTMVPSPEAKLTEVDNYHFYSSIPSMEKEVGNCSPHFLNAFEDSFSSILSTEDPNQLTVNSLNSDATVNTDFGDEFYSAFIAEPSISNSMPSPATLSHSLSELLNGPIDVSDLSLCKAFNQNHPESTAEFNDSDSGISLNTSPSVASPEHSVESSSYGDTLLGLSDSEVEELDSAPGSVKQNGPKTPVHSSGDMVQPLSPSQGQSTHVHDAQCENTPEKELPVSPGHRKTPFTKDKHSSRLEAHLTRDELRAKALHIPFPVEKIINLPVVDFNEMMSKEQFNEAQLALIRDIRRRGKNKVAAQNCRKRKLENIVELEQDLDHLKDEKEKLLKEKGENDKSLHLLKKQLSTLYLEVFSMLRDEDGKPYSPSEYSLQQTRDGNVFLVPKSKKPDVKKN
